Measurements from publication PMC3478187, “PEGylation, increasing specific activity and multiple dosing as strategies to improve the risk-benefit profile of targeted radionuclide therapy with ^177Lu-DOTA-bombesin analogues” (EJNMMI Research, 2012).
Like-named read-outs stand apart in the source and are kept apart here.

Columns and labels:
[1] = Octanol/PBS partition coefficient (log D); assay type: physicochemical; details: shake-flask 1-octanol/PBS (1:1), pH 7.4, 30 kBq, vortex 1 min, centrifuged, gamma counter, sextuplicate, mean ± SD
Protocol: Material & Methods: The octanol/PBS partition coefficients were determined at pH 7.4. Five μl containing 30 kBq of the radiolabelled compounds in phosphate buffered saline (PBS) were added to a vial which contained 1.2 ml of 1-octanol and PBS (1:1). After vortexing for 1 min, the vial was centrifuged (5 min, 10 000 rpm) to ensure complete separation of layers. Then, 40 μl of each layer were taken in a preweighed vial and measured in a gamma counter (Packard Canberra Cobra II, Meriden, USA). Counts per weight unit of sample were calculated and log D values were determined as described by Pillarsetty et al. using the formula log10D=log10 (counts in 1 g of octanol/counts in 1 g of PBS). The experiments were performed in sextuplicate.

[2] = Metabolic stability in human plasma; assay type: in vitro ADME; details: 37 °C
Protocol: The labelled analogues were incubated with human plasma (final concentration, 10 MBq/0.6 ml) at 37 °C for various time intervals up to 12 days. After incubation, proteins were precipitated with acetonitrile/ethanol (1:1) and TFA (0.1%) and then centrifuged. The supernatant was analysed with RP-high-performance liquid chromatography (HPLC) equipped with a radioactivity detector. […] The experiments were performed two times.

[3] = Biodistribution in nude mice bearing PC-3 tumour xenografts; details: female, CD-1 nu/nu, mouse, in vivo, iv, total radioactivity; for tissue uptake at 1 h / tissue uptake at 24 h: 0.3 MBq/0.075 nmol i.v., mean ± SD
Protocol: All animal experiments were conducted in compliance with the Swiss animal protection laws and with the ethical principles and guidelines for scientific animal experimentation established by the Swiss Academy of Natural Sciences. Biodistribution studies were performed with 6- to 8-week-old female CD-1 nu/nu mice (20 to 25 g) purchased from Charles River Laboratories (Sulzfeld, Germany). For the induction of tumour xenografts, each mouse received subcutaneously 8 × 10^6 PC-3 cells in 150 μl culture medium without supplements. The tumours were allowed to grow for at least 3 weeks. On the day of the experiment, the mice (3 to 6 per group) received the radioactive conjugates intravenously. […] Receptor-blocking studies were performed using 100 μg of unlabelled BN(1–14) co-injected with the corresponding radiolabelled BN analogue. At 1, 4 and 24 h post injection (p.i.), the animals were euthanised and dissected. Blood, tumours and various healthy tissues and organs were collected, weighed and examined for radioactivity. Results are expressed as percentage of injected dose per gram of tissue (% ID/g).

In the case of `CCCC[C@H](NC(=O)[C@H](CC1CCCCC1)NC(=O)[C@H](Cc1c[nH]cn1)NC(=O)CNC(=O)[C@@H](NC(=O)[C@H](C)NC(=O)[C@H](Cc1c[nH]c2ccccc12)NC(=O)[C@H](CCC(N)=O)NC(=O)CCNC(=O)CCNC(=O)CC(CCCCN)NC(=O)CN1CCN(CC(=O)O)CCN(CC(=O)O)CCN(CC(=O)O)CC1)C(C)C)C(N)=O` (stereo partly drawn) [^177Lu-DOTA-Lys-BN, metal not drawn], the logD [1] is reported as -2.18 ± 0.07, the remaining at 120 h, 10 MBq/0.6 ml ([2]; 10 MBq/0.6 ml, 5 days, precipitation acetonitrile/ethanol (1:1) + 0.1% TFA, RP-HPLC radioactivity detector, performed two times, mean ± SD, read-out: remained intact after 5 days) is reported as 13.8 ± 5.7% and the half-life at 10 MBq/0.6 ml ([2]; 10 MBq/0.6 ml, up to 12 days, RP-HPLC radioactivity detector, performed two times, mean ± SD) is reported as 28.8 h. The “half-life (t1/2) in human plasma” value ([2]; in vitro, as printed in hours in the discussion) was 28.8 h, the tissue uptake at 1 h ([3]; 1 h p.i. blocked, 100 μg unlabelled BN(1–14) co-injected, n = 3 to 4, read-out: Colon uptake, blocked) was 0.36 ± 0.07 %ID/g and the tissue uptake at 1 h ([3]; 1 h p.i. blocked, 100 μg unlabelled BN(1–14) co-injected, n = 3 to 4, read-out: Pancreas uptake, blocked) was 0.49 ± 0.22 %ID/g. It also gave a tissue uptake at 1 h ([3]; 1 h p.i. blocked, 100 μg unlabelled BN(1–14) co-injected, n = 3 to 4, read-out: Tumour uptake, blocked) of 0.55 ± 0.03 %ID/g, a tissue uptake at 1 h ([3]; 1 h p.i., n = 3 to 4, read-out: Blood uptake) of 0.24 ± 0.07 %ID/g and a tissue uptake at 1 h ([3]; 1 h p.i., n = 3 to 4, read-out: Bone uptake) of 0.36 ± 0.24 %ID/g. The tissue uptake at 1 h ([3]; 1 h p.i., n = 3 to 4, read-out: Colon uptake) was 1.64 ± 0.4 %ID/g, the tissue uptake at 1 h ([3]; 1 h p.i., n = 3 to 4, read-out: Heart uptake) was 0.14 ± 0.06 %ID/g and the tissue uptake at 1 h ([3]; 1 h p.i., n = 3 to 4, read-out: Kidneys uptake) was 2.86 ± 0.63 %ID/g. The tissue uptake at 1 h ([3]; 1 h p.i., n = 3 to 4, read-out: Liver uptake) was 0.26 ± 0.09 %ID/g, the tissue uptake at 1 h ([3]; 1 h p.i., n = 3 to 4, read-out: Lung uptake) was 0.36 ± 0.08 %ID/g and the tissue uptake at 1 h ([3]; 1 h p.i., n = 3 to 4, read-out: Muscle uptake) was 0.2 ± 0.24 %ID/g. For the same compound, the tissue uptake at 1 h ([3]; 1 h p.i., n = 3 to 4, read-out: Pancreas uptake) was 8.68 ± 1.95 %ID/g, the tissue uptake at 1 h ([3]; 1 h p.i., n = 3 to 4, read-out: Small intestine uptake) was 1.38 ± 0.41 %ID/g and the tissue uptake at 1 h ([3]; 1 h p.i., n = 3 to 4, read-out: Spleen uptake) was 0.42 ± 0.12 %ID/g. It also gave a tissue uptake at 1 h ([3]; 1 h p.i., n = 3 to 4, read-out: Stomach uptake) of 0.72 ± 0.19 %ID/g, a tissue uptake at 1 h ([3]; 1 h p.i., n = 3 to 4, read-out: Tumour uptake) of 1.88 ± 0.47 %ID/g and a tissue to tissue ratio at 24 h ([3]; 24 h p.i., 0.075 nmol, read-out: tumour-to-liver ratio) of 5.9. It also gave a tissue uptake at 24 h ([3]; 24 h p.i., n = 3 to 4, read-out: Bone uptake) of 0.02 ± 0.01 %ID/g, a tissue uptake at 24 h ([3]; 24 h p.i., n = 3 to 4, read-out: Colon uptake) of 0.36 ± 0.09 %ID/g and a tissue uptake at 24 h ([3]; 24 h p.i., n = 3 to 4, read-out: Heart uptake) of 0.01 ± 0.01 %ID/g. It also gave a tissue uptake at 24 h ([3]; 24 h p.i., n = 3 to 4, read-out: Kidneys uptake) of 1.41 ± 0.14 %ID/g, a tissue uptake at 24 h ([3]; 24 h p.i., n = 3 to 4, read-out: Liver uptake) of 0.09 ± 0.02 %ID/g and a tissue uptake at 24 h ([3]; 24 h p.i., n = 3 to 4, read-out: Lung uptake) of 0.02 ± 0.01 %ID/g. It also gave a tissue uptake at 24 h ([3]; 24 h p.i., n = 3 to 4, read-out: Muscle uptake) of 0.01 %ID/g, a tissue uptake at 24 h ([3]; 24 h p.i., n = 3 to 4, read-out: Pancreas uptake) of 4.27 ± 0.85 %ID/g and a tissue uptake at 24 h ([3]; 24 h p.i., n = 3 to 4, read-out: Small intestine uptake) of 0.16 ± 0.03 %ID/g. For the same compound, the tissue uptake at 24 h ([3]; 24 h p.i., n = 3 to 4, read-out: Spleen uptake) was 0.18 ± 0.04 %ID/g, the tissue uptake at 24 h ([3]; 24 h p.i., n = 3 to 4, read-out: Stomach uptake) was 0.1 ± 0.02 %ID/g and the tissue uptake at 24 h ([3]; 24 h p.i., n = 3 to 4, read-out: Tumour uptake) was 0.54 ± 0.3 %ID/g.
